# In patent publication US20170165321A1, “METHOD FOR REDUCING AND/OR DELAYING PATHOLOGICAL EFFECTS OF HUMAN IMMUNODEFICIENCY VIRUS I (HIV) OR FOR REDUCING THE RISK OF DEVELOPING ACQUIRED IMMUNODEFICIENCY SYNDROME (AIDS)” (Bionor Immuno AS, priority 2014, published 2017):
# Where no end group is shown, it is not given here.
# B1: Vacc-4x: four synthetic peptides (Vacc-10, Vacc-11, Vacc-12, Vacc-13 acetate) corresponding to conserved domains on HIV-1 p24; SEQ ID NOs 3, 6, 11, 18 (peptide)
# chain 1: APTRAKRRVVQREKRAV
# chain 2: DRPEGIEEEGGERDR
# chain 3: QLLLNGSLAEEEIVI
# chain 4: GGAKRRVVGGAKRRVVGGQREKR
# modifications: also: acetate salts
# Legend:
# [1] = tested on: patients infected with HIV-1; test: Phase II randomized placebo-controlled study CT-BI Vacc-4x 2007/1; assay type: in vivo, human
# Description: The Phase II Study CT-BI Vacc-4x 2007/1 (EudraCT Number 2007-006302-13) was performed in US and Europe (UK, Germany, Spain and Italy). The study was a randomized, double-blind, multicenter, immunogenicity study of Vacc-4x versus placebo in patients infected with HIV-1 who have maintained an adequate response to ART. The primary objective was to evaluate the effect of Vacc-4x immunizations versus placebo on CD4 counts, T-cell function (ELISPOT, T-cell proliferative responses and intracellular cytokine staining) and the response to interruption of ART. The necessity to resume ART between the interruption of ART at Week 28 and the end of the study at Week 52, due to decreased CD4 count or increased viral loads, was monitored as one of the primary efficacy endpoints.
# [2] = tested on: HIV-1 DNA (HIV-1 gag gene); test: Proviral DNA by real-time PCR in re-boosting study CT-BI Vacc-4x 2012/1; assay type: in vivo, human; details: PP
# Description: The study CT-BI Vacc-4x 2012/1 (EudraCT Number: 2012-002281-12) is an open label, multicenter, follow-up, re-boosting study of subjects who previously completed the immunization regimen with Vacc-4x active and stopped ART (at Week 28) in the CT-BI Vacc-4x 2007/1 Study (EudraCT Number 2007-006302-13). No restart of ART is required. The subjects will be re-boosted with two immunizations (Visit 2 and Visit 3) of Vacc-4x, 1.2 mg peptides (12 mg/mL), with a 2 week interval between immunizations.
# HIV-1 DNA levels will be determined by real-time PCR (Taqman) assay targeting HIV-1 gag gene. Briefly, DNA for each subject at visit 2, 4, 6, 9 and 10 will be extracted from total PBMCs (1-4 million cells), eluted in appropriate storage buffer, quantified and stored at −20° C. until used. Equal amounts of DNA (≈300 ng) will be used to quantify gag and albumin genes in order to determine the number of copies of HIV-DNA per million of cells.
# There was a decrease in proviral DNA levels of approximately 50% after immunization while on ART, based on geometric means.
molecule,measurement,setting,value
B1,"percentage change in CD4 count between Week 28 and last CD4 assessment before resumption of ART, versus placebo",[1]; ITT analysis population,no effect compared with placebo
same,"proportion of subjects requiring resumption of ART after ART cessation at Week 28, versus placebo",[1]; ITT analysis population,did not reduce
same,time to restarting ART versus placebo,[1]; ITT analysis population,similar
same,change in HIV-1 RNA from Week 28 through to Week 52 versus placebo,[1]; after ART cessation,statistically significant difference between groups in favour of Vacc-4x
same,safety concern,[1]; in vivo,No safety concern
same,Week 52 (LOCF) viral load versus placebo,[1]; post-hoc analysis,statistically significantly lower
same,average viral load versus placebo,[1]; subgroup who remained off ART until Week 52,lower in the Vacc-4x-treated subjects than the placebo group
same,HIV-1 RNA AUC versus placebo,[1]; subjects who remained off ART at Week 52,lower in the Vacc-4x group than in the placebo group
same,viral load (VL) set point versus placebo and versus historic preART values,[1]; with rhuGM-CSF (Leukine) as adjuvant,significant reduction
same,"immunogenicity, T-cell proliferative responses",[1]; with rhuGM-CSF as adjuvant,"immunogenic, inducing proliferative responses in both CD4 and CD8 T-cells"
same,"Proviral DNA, Geometric mean","[2]; Baseline, n 26",22.3 copies/mL
same,"Proviral DNA, Mean","[2]; Baseline, n 26",98.4 copies/mL
same,"Proviral DNA, Median","[2]; Baseline, n 26",57.0 copies/mL
same,"Proviral DNA, Geometric mean ratio (Week 4/Baseline)",[2]; n 26,0.5
same,"Proviral DNA, Geometric mean","[2]; Week 4, n 26 (Table 3)",11.4 Copies/mL
same,"Proviral DNA, Mean","[2]; Week 4, n 26 (Table 3)",93.9 Copies/mL
same,"Proviral DNA, Median","[2]; Week 4, n 26 (Table 3)",34.5 Copies/mL
same,"Proviral DNA, Geometric mean","[2]; Week 4, n 27 (Table 2)",12.9 copies/mL
same,"Proviral DNA, Mean","[2]; Week 4, n 27 (Table 2)",100.8 copies/mL
same,"Proviral DNA, Median","[2]; Week 4, n 27 (Table 2)",45.0 copies/mL
